Assay [1] deals with NSCs. Put plainly: Apoptosis and caspase activity in NSCs. The class given is cell-based, mouse. The method, then:
(§1) For staining of intracellular markers, cells were harvested, fixed with 4% PFA for 10 min on ice, washed and permeabilized using 0.1% Saponin (Sigma-Aldrich) in PBS with 10% FCS (SAP). Cells were incubated with primary antibody or isotype for 30 min on ice. Cells were washed three time with SAP and incubated with secondary antibody for 30 min on ice. Cells were washed again three times with SAP and analysed. Antibodies used were: anti β-III-tubulin (Chemicon) 1:100, anti GFAP (Chemicon) 1:100 and isotype mouse IgG1 (Sigma) 1:20. Secondary antibody was goat anti-mouse PE 1:100 (Dianova). To quantify DNA fragmentation, cells detached with trypsin were centrifuged, washed and fixed with 70% ethanol at −20° C. for 1 h. Fixed cells were resuspended in a hypotonic lysis buffer (0.1% sodium citrate and 0.1% Triton X-100) containing […] of propidium iodide, incubated at 4° C. overnight. After final washings, all samples were analysed using a FACS-Calibur (Becton Dickinson) and CellQuest Software (Becton Dickinson).
Caspase Activity Assay. Apostat Intracellular Caspase Detection Caspase Activity Assay was purchased from R&D Systems. Assay was performed according to the manufacturers' instructions and analyzed using a FACSCalibur (Becton Dickinson) and CellQuest software (Becton Dickinson).

Assay [2] has as its system neural progenitor cells. Put plainly: Proliferation rate of neural progenitor cells. It counts as cell-based, mouse. The settings on record: compared to untreated cells; data not shown. The procedure: Mouse adult neural stem cell culture. NSCs were isolated as previously described^30. Briefly, 6 week old female C57BL6 mice were sacrificied and tissue from hippocampus, SVZ and spinal cord was dissected out. The tissue was digested, washed and cultured in Neurobasal Medium (Invitrogen Karlsruhe, Germany) supplemented with B27 (Invitrogen), Penicillin-Streptomycin (Invitrogen), Glutamax (Invitrogen), Heparin (2 μg/ml) (Sigma) and the growth factors EGF (20 ng/ml) (Promocell) and bFGF (20 ng/ml) (Promocell). After 7 days in culture neurospheres were harvested by centrifugation, dissociated using trypsin (Invitrogen) and replated. Cells were passaged once to twice weekly. Cells used for experiments were passaged between 10 to 15 times. Cells were stimulated with 10 μM Retinoic Acid or 1 activation unit of CD95L-T4. One activation unit was defined as the amount of CD95L-T4 required to increase phosphorylation of GSK3β. Activation units were defined freshly for each batch of CD95L-T4 and varied from 5-40 ng/ml.

Assay [3] deals with neural progenitor cells. Briefly: GFAP expression (glial differentiation) in neural progenitor cells. It counts as cell-based, mouse. The following applies: data not shown. The method, then:
as §1
(§2) Mouse adult neural stem cell culture. NSCs were isolated as previously described^30. Briefly, 6 week old female C57BL6 mice were sacrificied and tissue from hippocampus, SVZ and spinal cord was dissected out. […]

Assay [4] has as its system SVZ NSCs. Put plainly: β-III-tubulin expression in adult SVZ neural progenitor cells (flow cytometry). The class given is cell-based, mouse. The settings on record: SVZ progenitors, in the presence of growth factors. An excerpt:
Lentiviral infections. SVZ NSCs were infected with the lentiviral vector pEIGW and pEIGW-GSK3βS9A at a multiplicity of infection (MOI) of 5. The plasmids were constructed by replacing the eGFP sequence between the EF1α promotor and the WPRE element in pWPTS-eGFP with the IRES-eGFP cassette form pIRES2-eGFP (Clontech, Germany). The recombinant lentiviral vector pEIGW-GSK3βS9A was constructed using pcDNA3 HA-GSK3βS9A. This vector encodes a constitutively active GSK3β mutant containing a serine-to-alanine substitution at residue 9 (GSK3βS9A). Expression of all transgenes was confirmed in infected cells by FACS analysis of GFP expression. The percentage of infected cells was 70-90%.
siRNA. […] 48 h later pp60 src knockdown was assessed by Western Blot. At the same time, cells were stimulated with CD95L-T4 and analysed after 48 h for β-III-tubulin positive cells.
For staining of intracellular markers, cells were harvested, fixed with 4% PFA for 10 min on ice, washed and permeabilized using 0.1% Saponin (Sigma-Aldrich) in PBS with 10% FCS (SAP). […] Cells were washed again three times with SAP and analysed. […] To quantify DNA fragmentation, cells detached with trypsin were centrifuged, washed and fixed with 70% ethanol at −20° C. for 1 h. […] After final washings, all samples were analysed using a FACS-Calibur (Becton Dickinson) and CellQuest Software (Becton Dickinson). […]

The test system of assay [5] is mouse adult SVZ NSCs. Briefly: Gene expression by quantitative real-time PCR in adult SVZ NSCs. The following applies: 48 h after stimulation. The class given is cell-based. The method, then:
Real-time Quantitative PCR. 24 h cells after plating cells were stimulated with 1 activation unit of CD95L-T4. After 48 h RNA was isolated using the RNeasy Mini Kit (Qiagen). Real-time quantitative PCR was carried out using Sybr Green core kits (Eurogentec) and Uracil-N-glycosylase (Eurogentec). For determining CD95L induction after global ischemia, the hippocampi were dissected out and stored in RNAlater reagent (Ambion). RNA was extracted using the RNeasy Mini Kit (Qiagen). Real-time quantitative PCR was carried out using Sybr Green core kits (Eurogentec) and Uracil-N-glycosylase (Eurogentec). Primers used for quantitative real-time PCR were designed using Primer 3 software (http://fokker.wi.mit.edu/cgi-bin/primer3/primer3_www.cgi).

For assay [6], the system named is hippocampal NSCs. Put plainly: β-III-tubulin expression in hippocampal neural progenitor cells. The class given is cell-based, mouse. The settings on record: neural progenitors isolated from the HC. The procedure:
as §1, §2

B1: CD95L: the ligand for CD95 (APO-1/Fas) (protein, listed as Homo sapiens)
chain: MQQPFNYPYPQIYWVDSSASSPWAPPGTVLPCPTSVPRRPGQRRPPPPPPPPPLPPPPPPPPLPPLPLPPLKKRGNHSTGLCLLVMFFMVLVALVGLGLGMFQLFHLQKELAELRESTSQMHTASSLEKQIGHPSPPPEKKELRKVAHLTGKSNSRSMPLEWEDTYGIVLLSGVKYKKGGLVINETGLYFVYSKVYFRGQSCNNLPLSHKVYMRNSKYPQDLVMMEGKMMSYCTTGQMWARSSYLGAVFNLTSADHLYVNVSELSLVNFEESQTFFGLYKL
modifications: CHAIN (1)..(281) This feature is the amino acid sequence for CD95L protein. CD95L is a ligand for CD95. CD95 is APO-1/Fas and a member of the tumor necrosis factor receptor superfamily.
Take B1: the apoptosis result in assay [1] is “could not detect apoptosis”. For the same molecule, the proliferation rate result in assay [2] is “did not lead to significant changes in the proliferation rate”. Also, the GFAP expression result in assay [3] is reported as “did not change GFAP expression”. Moreover, the results for the β-III-tubulin expression entry in assay [4] and in assay [6] were “greatly increased β-III-tubulin expression” and “increase in β-III-tubulin expression”, respectively. Further, the “Neurogenin (Ngn1) expression” value in assay [5] was “much higher”.

Source of the values: patent US20110300113A1, “Death Receptor CD95 Controls Neurogenesis of Adult Neural Stem Cells in Vivo and in Vitro” (DEUTSCHES KREBSFORSCHUNGSZENTRUM, priority 2006, published 2011).
